Test results from PMC6783653, “TIP30 counteracts cardiac hypertrophy and failure by inhibiting translational elongation” (EMBO Molecular Medicine, 2019).

Target: T1, GST-tagged eEF1A1 (rat, UniProt P62630 1-462)
T1 construct: eEF1A1, rat, open reading frame BC128723.1; Cloned into pGEX-4T1, which should place GST at the N-terminus (surmise); also called GST-eEF1A1
T1 sequence (looked up): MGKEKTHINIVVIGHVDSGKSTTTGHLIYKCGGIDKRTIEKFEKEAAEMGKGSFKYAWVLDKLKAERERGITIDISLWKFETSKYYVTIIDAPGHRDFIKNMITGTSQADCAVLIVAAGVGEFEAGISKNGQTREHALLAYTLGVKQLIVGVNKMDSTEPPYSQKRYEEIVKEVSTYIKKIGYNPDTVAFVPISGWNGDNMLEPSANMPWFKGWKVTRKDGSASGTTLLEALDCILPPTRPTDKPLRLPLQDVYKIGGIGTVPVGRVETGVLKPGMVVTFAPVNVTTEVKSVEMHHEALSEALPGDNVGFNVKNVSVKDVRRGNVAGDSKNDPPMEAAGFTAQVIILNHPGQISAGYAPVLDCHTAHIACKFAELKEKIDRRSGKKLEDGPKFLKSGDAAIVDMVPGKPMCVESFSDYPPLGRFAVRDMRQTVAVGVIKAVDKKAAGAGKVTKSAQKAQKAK
Assay: pull-down; GST or GST-eEF1A1 on glutathione agarose beads, purified eEF1B2-His; purified TIP30-His added in increasing amounts
Conditions: both partners purified

B1: purified eEF1B2-His (natural protein, rat, UniProt A6IPG1 1-225, looked up)
chain: MGFGDLKTPAGLQVLNDYLADKSYIEGYVPSQADVAVFEAISGPPPADLCHALRWYNHIKSYEKEKASLPGVKKSLGKYGPVSVADTTGSGAADAKDDDDIDLFGSDDEEESEDAKRLREERLAQYESKKAKKPAVVAKSSILLDVKPWDDETDMTKLEECVRSIQADGLVWGSSKLVPVGYGIKKLQIQCVVEDDKVGTDMLEEQITAFEDYVQSMDVAAFNKI
notes: eEF1B2, rat, open reading frame NM_001108799.2
binding result: binds
